These results are taken from article PMC7984254 (Biochimica et biophysica acta. Molecular cell research, 2020).

The target of the experiment is recombinant FGF14 protein (aa 64–252) (human, UniProt Q92915-2 64-252). Description: SPR.

As usually defined, the koff is the first-order rate constant of dissociation. Broadly, the kon is the second-order rate constant of association. Turning to KFKESVFENAYVIYSSMLYR (peptide, UniProt Q92915-2 149-168, looked up) [FGF14^Y158A mutant peptide], the koff turned out to be 0.158 s⁻¹ and the kon stood at 23200 M⁻¹ s⁻¹.
